This experiment concerns the target T1, rat VEGF A subunit, 164 amino acid mature (secreted) form of the 190 amino acid translation product (rat, UniProt P16612 27-214).
T1 construct: also called VEGF AB, A subunit; A chain
T1 sequence: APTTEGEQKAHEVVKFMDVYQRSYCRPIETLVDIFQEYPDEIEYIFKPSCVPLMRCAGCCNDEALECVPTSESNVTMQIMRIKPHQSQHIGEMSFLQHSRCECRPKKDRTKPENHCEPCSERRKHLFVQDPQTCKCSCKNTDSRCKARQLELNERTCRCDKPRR
Description: purified native VEGF AB reduced and carboxymethylated; subunits separated by C4 reverse phase HPLC and N-terminally sequenced; single 58 kDa band non-reduced against about 23 kDa reduced on SDS-PAGE.

This is an account of results in patent US6569434 (MERCK, dated 2003).

B1: rat VEGF B subunit, 135 amino acid mature form derived from the 158 amino acid full length form (ligand)
chain: ALSAGNNSTEMEVVPFNEVWGRSYCRPMEKLVYIADEHPNEVSHIFSPSCVLLSRCSGCCGDEGLHCVALKTANITMQILKIPPNRDPHSYVEMTFSQDVLCECRPILETTKAERRKTKGKRKQSKTPQTEEPHL
notes: Native subunit purified from GS-9L conditioned medium as part of VEGF AB; also called VEGF AB, B subunit; B chain
For the molecule B1, the binding result is given as “binds”.
